{"source": "patent US11224662B2", "about": "“Methods and therapeutics comprising ligand-targeted ELPs” (priority 2012, dated 2022)", "key": {"[1]": {"experiment": "Temperature-dependent optical density (turbidity) of ELP fusion peptides", "format": "physicochemical", "conditions": "25 μM in PBS; for Transition Temperature T1: first phase transition; for Transition Temperature T1 / Transition Temperature T2: optical density; for Transition Temperature T2: second phase transition", "experimental": "(§1) To explore the temperature-dependent phase behavior of the ELPs, optical density and hydrodynamic radius were observed over a range of temperatures. Knob-S96, S48148 and knob-S48148 were diluted to 25 μM in PBS on ice and the absorbance at 350 nm was monitored with a DU800 UV-Vis spectrophotometer (Beckman Coulter, Brea, Calif.) at a temperature gradient of 1° C./minute. […] Then 90 μL sample of was transferred into a 384 well microplate and covered with 20 μL mineral oil. The microplate and mineral oil were pre-chilled at 4° C. at least for 1 hour. The microplate was centrifuged at 4° C. to remove air bubbles from samples before and after addition of mineral oil. Then the sample was measured in a DynaPro plate reader (Wyatt Inc., Santa Barbara, Calif.) at temperature intervals of 1° C. The resulting hydrodynamic radii were collected and analyzed by Dynamics (Wyatt Inc., Santa Barbara, Calif.)."}, "[2]": {"test_system": "transformed mouse hepatocytes", "experiment": "Live cell uptake of rhodamine-conjugated ELP/knob-ELP in hepatocytes", "format": "cell-based", "conditions": "10 μM rhodamine-labeled, 30 minutes at 37° C., confocal microscopy, LYSOTRACKER green", "experimental": "To track cellular uptake, the ELPs S48148 and knob-S48148 were conjugated with a detectable label, NHS-Rhodamine (Thermo Fisher Scientific Inc, Rockford, Ill.) via covalent modification of primary amines at the amino end of the peptide. For S48148, the only available amine is at the amino terminus; however, knob-S48148 has an additional 11 lysine residues that may be sites of modification. The conjugation was performed in 100 mM borate buffer for 2 hours at 4° C., and the conjugated ELP was separated by size exclusion chromatography on a PD10 desalting column (GE Healthcare, Piscataway, N.J.).\nTo observe uptake into mouse hepatocytes, cells were cultured on 35 mm glass coverslip-bottomed dishes with medium [(DMEM (4.5 g/L) containing 10% fetal bovine serum, g/ml insulin, and 0.02 [μg/ml epidermal growth factor]. Uptake studies were conducted when hepatocytes reached 70% confluence. After washing with warm fresh medium, hepatocytes were cultured in medium containing 10 μM of either S48148 or knob-S48148 conjugated with rhodamine, and 75 nM LYSOTRACKER® green. After 30 minutes incubation at 37° C., the cells were rinsed with warm fresh medium to remove the free knob-ELP/ELP in the medium. Next cells were incubated with 75 nM LYSOTRACKER® green in a 37° C. incubation chamber. […]"}, "[3]": {"test_system": "lacrimal gland acinar cells (LGACs)", "experiment": "Suppression of transcytosis by Myosin Vb tail overexpression in LGACs", "format": "cell-based, rabbit", "conditions": "30 μM Cy5-conjugated, 60 minutes at 37° C.", "experimental": "To obtain the indication of lumen area of LGACs, the cells were also pre-infected with Adenovirus EGFP-actin and helper virus at a 37° C. incubator with 5% CO2 overnight. To avoid the clash of fluorescence colours, the knob-S48148 used in transcytosis inhibition was conjugated with Cy5. The LGACs were grown on 35 mm glass-bottomed dishes for two days. Adenovirus EGFP-actin and helper virus with or without adenovirus mCherry Myosin Vb tail were added into dishes and cultured overnight. After waiting for expression of fluorescence, confocal microscopy was used to make sure adenovirus mCherry-myosin Vb tail and adenovirus EGFP-actin grow in LGACs. On the third day, knob-S48148 conjugated with Cy5 was then mixed with the cold medium at a concentration of 30 μM, warmed to 37° C. and then added into dishes. After 60 minutes incubation in a 37° C. incubator with 5% CO2, LGACs were thoroughly rinsed with fresh warm medium then immediately imaged under a Zeiss LSM 510 Meta confocal microscope system, which is equipped with argon and red and green He—Ne lasers and mounted on a vibration-free table. All images were captured under the confocal microscope and processed using ImageJ (NIH, USA)."}, "[4]": {"target": "T1, coxsackie adenovirus receptor (CAR) (Mus musculus, UniProt P97792)", "T1 construct": "This study was carried out in transformed mouse hepatocytes because of the high expression of CAR; endogenous in cells; host or cells: transformed mouse hepatocyte cell line", "T1 sequence (P97792 20-365)": "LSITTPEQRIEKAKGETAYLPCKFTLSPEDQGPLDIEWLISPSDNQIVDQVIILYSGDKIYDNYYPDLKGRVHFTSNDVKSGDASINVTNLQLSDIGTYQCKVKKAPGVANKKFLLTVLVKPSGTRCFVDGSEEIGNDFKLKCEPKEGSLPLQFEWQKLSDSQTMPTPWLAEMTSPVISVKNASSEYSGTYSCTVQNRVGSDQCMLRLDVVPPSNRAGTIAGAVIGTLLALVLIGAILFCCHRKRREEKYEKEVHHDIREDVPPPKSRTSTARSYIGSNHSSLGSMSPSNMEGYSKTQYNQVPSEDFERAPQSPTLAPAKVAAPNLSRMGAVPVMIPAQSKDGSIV", "experiment": "Competitive binding and uptake with anti-mouse CAR antibody in hepatocytes", "format": "cell-based", "conditions": "20 μg/mL anti-mouse CAR antibody 30 minutes at 37° C., then 10 μM rhodamine-conjugated knob-S48I48", "experimental": "After confirming that the goat anti-mouse CAR antibody has a high affinity with the mouse hepatocytes, the anti-mouse CAR antibody (0.2 mg/mL) was diluted with warm medium 10-fold and incubated with the hepatocytes for 30 minutes at 37° C. Knob-S48148 conjugated with rhodamine was then added to the medium at a concentration of 10 μM. After 30 minutes incubation with knob-S48148 and 75 nM LYSOTRACKER® green, the hepatocytes were rinsed, then incubated in fresh warm medium with 75 nM LYSOTRACKER® green and imaged as described above."}, "[5]": {"test_system": "LG of BALB/c mice", "experiment": "In vivo retention in the lacrimal gland after intra-lacrimal gland injection", "parameters": "species or system mouse", "conditions": "5 μL of 50 μM rhodamine-labelled, 1 h, compared with untargeted S48I48", "experimental": "Twelve-week-old male BALB/c mice were administered, by intra-lacrimal gland injection, 5 μL of 50 μM rhodamine-labelled S48148 or rhodamine-labelled knob-S48148 (red) combined with 50 μg CF-dextran (10 kD, green). After 1 h, mice were euthanized and the glands were retrieved, embedded into the O.C.T. compound (Tissue-Tek), and frozen on dry ice. The frozen tissue blocks were cut into 10 μm thick sections and imaged using confocal fluorescence microscopy. The white arrows indicate endocytosed S48148 or knob-S48148 nanoparticles. The bar represents 10 μm. […] For this experiment, the mice were euthanatized by intraperitoneal injection with 55 mg ketamine and 14 mg xylazine per kilogram of body weight, followed by cervical dislocation. 5 μL of 50 μM rhodamine labelled knob-S48148 or S48148 was injected into the lacrimal glands of mice. After 60 minutes, the tear was collected from one eye of mouse by adding Carbachol into the related lacrimal gland. For another gland, it was removed after the tear collection was done at the first eye. After removal, LGs were snap frozen and stored on the dry ice. The frozen glands were cut into 10 μm thick sections and mounted on glass slides. Then the sections were examined with a confocal laser scanning microscope (LSM) at excitation wavelengths of 488 and 534 nm."}, "[6]": {"experiment": "Dynamic light scattering of ELP nanoparticles", "format": "physicochemical", "experimental": "as §1"}}}
{"molecule": "knob-G(VPGSG)48(VPGIG)48Y (SEQ ID. NO: 10) (protein, assembles into nanoparticles) GVPGSGVPGSGVPGSGVPGSGVPGSGVPGSGVPGSGVPGSGVPGSGVPGSGVPGSGVPGSGVPGSGVPGSGVPGSGVPGSGVPGSGVPGSGVPGSGVPGSGVPGSGVPGSGVPGSGVPGSGVPGSGVPGSGVPGSGVPGSGVPGSGVPGSGVPGSGVPGSGVPGSGVPGSGVPGSGVPGSGVPGSGVPGSGVPGSGVPGSGVPGSGVPGSGVPGSGVPGSGVPGSGVPGSGVPGSGVPGSGVPGIGVPGIGVPGIGVPGIGVPGIGVPGIGVPGIGVPGIGVPGIGVPGIGVPGIGVPGIGVPGIGVPGIGVPGIGVPGIGVPGIGVPGIGVPGIGVPGIGVPGIGVPGIGVPGIGVPGIGVPGIGVPGIGVPGIGVPGIGVPGIGVPGIGVPGIGVPGIGVPGIGVPGIGVPGIGVPGIGVPGIGVPGIGVPGIGVPGIGVPGIGVPGIGVPGIGVPGIGVPGIGVPGIGVPGIGVPGIGY", "values": [{"measurement": "Transition Temperature T1", "setting": "[1]", "result": 19.5, "unit": "°C"}, {"measurement": "Transition Temperature T1", "setting": "[1]; listed as Knob-S48148", "result": "around 19.5 °C"}, {"measurement": "Critical aggregation temperature", "setting": "[1]; optical density at 350 nm by UV-Vis spectrophotometer", "result": 19.5, "unit": "°C"}, {"measurement": "Transition Temperature T2", "setting": "[1]", "result": 60, "unit": "°C"}, {"measurement": "Transition Temperature T2", "setting": "[1]; listed as Knob-S48148", "result": "around 60 °C"}, {"measurement": "cellular uptake / fluorescence localisation", "setting": "[2]", "result": "significant cellular uptake"}, {"measurement": "transcytosis with overexpressed mCherry myosin Vb tail", "setting": "[3]", "result": "significantly reduce the transcytosis"}, {"measurement": "intracellular knob-S48I48 fluorescence after anti-mouse CAR antibody pre-incubation", "setting": "[4]", "result": "reduced the intracellular punctate fluorescence"}, {"measurement": "retention in lacrimal gland (accumulation, surface association, internalization)", "setting": "[5]", "result": "stronger apical-membrane/luminal accumulation, surface association, and internalization"}, {"measurement": "size by dynamic light scattering (BSA; unimers of the ELPs)", "setting": "[6]; BSA stable from 10 to 37° C., ELPs as unimers below assembly temperature", "result": "around 4 nm"}, {"measurement": "critical nanoparticle temperature (CNT)", "setting": "[6]; dynamic light scattering", "result": 19.5, "unit": "°C"}, {"measurement": "Hydrodynamic radius (nm) at 37° C.", "setting": "[6]; dynamic light scattering, 25 μM in PBS, 37° C.", "result": 21.7, "unit": "nm"}, {"measurement": "hydrodynamic diameter of nanoparticles", "setting": "[6]; dynamic light scattering, self-assembled nanoparticles", "result": "around 40 nm"}]}
